Experimental data from paper PMC2606670.

Tests used:
[1] = biological target: GST-ctβ382-401 Y390F (mouse | not stated) (UniProt P09690); assay: far-Western, overlay or dot blot
[2] = biological target: acetylcholine receptor containing beta subunit phosphorylated at Y390 (mouse (endogenous in myotubes)) (UniProt P04756); assay: co-IP
Chain of UniProt P04756 (P04756 21-457, chain 1 of 4): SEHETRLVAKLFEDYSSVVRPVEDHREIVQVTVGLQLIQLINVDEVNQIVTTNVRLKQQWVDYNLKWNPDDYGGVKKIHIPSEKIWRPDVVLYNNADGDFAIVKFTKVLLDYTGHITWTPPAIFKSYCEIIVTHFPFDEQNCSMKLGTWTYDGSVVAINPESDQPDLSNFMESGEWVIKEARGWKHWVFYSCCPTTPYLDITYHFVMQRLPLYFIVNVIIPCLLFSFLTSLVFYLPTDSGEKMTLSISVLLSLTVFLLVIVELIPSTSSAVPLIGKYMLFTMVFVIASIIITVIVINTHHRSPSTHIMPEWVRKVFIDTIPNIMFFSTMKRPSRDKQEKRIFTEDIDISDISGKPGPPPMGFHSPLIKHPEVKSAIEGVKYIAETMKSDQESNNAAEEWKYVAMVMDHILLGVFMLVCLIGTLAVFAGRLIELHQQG
Chain of UniProt P04756 (P09690 24-501, chain 2 of 4, further chain): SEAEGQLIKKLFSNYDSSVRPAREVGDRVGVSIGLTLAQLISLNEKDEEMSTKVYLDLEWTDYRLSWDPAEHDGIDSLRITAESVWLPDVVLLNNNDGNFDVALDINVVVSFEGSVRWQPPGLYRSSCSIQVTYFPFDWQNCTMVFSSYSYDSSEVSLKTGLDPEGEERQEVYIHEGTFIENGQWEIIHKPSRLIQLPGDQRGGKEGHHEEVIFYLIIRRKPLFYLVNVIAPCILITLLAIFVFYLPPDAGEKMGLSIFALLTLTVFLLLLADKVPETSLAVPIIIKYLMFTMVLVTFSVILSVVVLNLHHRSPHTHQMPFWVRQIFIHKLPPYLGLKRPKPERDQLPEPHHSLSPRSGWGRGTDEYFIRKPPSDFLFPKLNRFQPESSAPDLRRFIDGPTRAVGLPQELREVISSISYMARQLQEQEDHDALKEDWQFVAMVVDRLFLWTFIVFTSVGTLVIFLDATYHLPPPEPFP
Chain of UniProt P04756 (P02716 25-520, chain 3 of 4, further chain): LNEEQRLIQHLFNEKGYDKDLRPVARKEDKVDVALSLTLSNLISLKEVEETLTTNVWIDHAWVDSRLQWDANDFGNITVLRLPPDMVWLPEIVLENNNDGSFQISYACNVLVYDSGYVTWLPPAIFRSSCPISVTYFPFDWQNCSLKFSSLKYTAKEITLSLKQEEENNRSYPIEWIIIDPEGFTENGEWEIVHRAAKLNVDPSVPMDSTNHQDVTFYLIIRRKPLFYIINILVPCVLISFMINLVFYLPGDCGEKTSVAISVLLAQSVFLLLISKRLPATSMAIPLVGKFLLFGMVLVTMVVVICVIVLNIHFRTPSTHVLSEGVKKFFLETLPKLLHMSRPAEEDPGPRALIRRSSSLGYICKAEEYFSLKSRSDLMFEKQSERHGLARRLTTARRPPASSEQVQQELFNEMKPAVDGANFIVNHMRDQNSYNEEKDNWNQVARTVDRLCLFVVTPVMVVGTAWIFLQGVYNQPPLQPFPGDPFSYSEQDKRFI
Chain of UniProt P04756 (P04760 23-519, chain 4 of 4, further chain): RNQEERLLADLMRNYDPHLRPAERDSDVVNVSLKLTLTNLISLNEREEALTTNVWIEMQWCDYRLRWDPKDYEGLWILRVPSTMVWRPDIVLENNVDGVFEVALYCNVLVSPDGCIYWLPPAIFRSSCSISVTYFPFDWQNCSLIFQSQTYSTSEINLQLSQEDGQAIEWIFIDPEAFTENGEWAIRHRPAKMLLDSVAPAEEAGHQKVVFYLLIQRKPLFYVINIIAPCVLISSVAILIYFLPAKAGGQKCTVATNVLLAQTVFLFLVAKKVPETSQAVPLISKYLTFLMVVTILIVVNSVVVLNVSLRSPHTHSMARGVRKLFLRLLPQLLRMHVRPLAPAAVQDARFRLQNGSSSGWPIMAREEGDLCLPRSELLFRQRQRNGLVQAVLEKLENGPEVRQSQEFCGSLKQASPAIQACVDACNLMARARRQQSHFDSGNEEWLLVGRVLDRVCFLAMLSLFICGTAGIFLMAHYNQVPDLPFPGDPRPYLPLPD

B1: GST-rapsyn (natural protein)
chain: MGQDQTKQQIEKGLQLYQSNQTEKALQVWMKVLEKGSDLVGRFRVLGCLVTAHSEMGRYKEMLKFAVVQIDTARGLEDADFLLESYLNLARSNEKLCEFHKTISYCKTCLGLPGTRAGAQLGGQVSLSMGNAFLGLSLFQKALESFEKALRYAHNNDDTMLECRVCCSLGSFYAQVKDYEKALFFPCKAAELVNDYGKGWSLKYRAMSQYHMAVAYRLLGHLGSAMECCEESMKIALQHGDRPLQALCLLCFADIHRSRGDLETAFPRYDSAMSIMTEIGNRLGQVHVLLGVAKCWMARKVQDKALDAIEKAQDLAEEVGNKLSQLKLHCLSESIYRSKGLQRELRTHVVRFHECVEETELYCGLCGESIGERNSRLQALPCSHIFHLRCLQNNGTRSCPNCRRSSMKPGFV
In the case of B1, the % of binding to β382-401 WT (% of binding to β382-401 WT) [1] is reported as 92.

B2: rapsyn, endogenous in mouse myotubes (natural protein)
chain: MGQDQTKQQIEKGLQLYQSNQTEKALQVWMKVLEKGSDLVGRFRVLGCLVTAHSEMGRYKEMLKFAVVQIDTARGLEDADFLLESYLNLARSNEKLCEFHKTISYCKTCLGLPGTRAGAQLGGQVSLSMGNAFLGLSLFQKALESFEKALRYAHNNDDTMLECRVCCSLGSFYAQVKDYEKALFFPCKAAELVNDYGKGWSLKYRAMSQYHMAVAYRLLGHLGSAMECCEESMKIALQHGDRPLQALCLLCFADIHRSRGDLETAFPRYDSAMSIMTEIGNRLGQVHVLLGVAKCWMARKVQDKALDAIEKAQDLAEEVGNKLSQLKLHCLSESIYRSKGLQRELRTHVVRFHECVEETELYCGLCGESIGERNSRLQALPCSHIFHLRCLQNNGTRSCPNCRRSSMKPGFV
For B2, the fold rapsyn associated, against AChR with non-phosphorylated β subunit [2] was 2.3 fold.
